Test results reported in the supplement of paper PMC7125110.
± gives the standard error. Fewer inactive variants are shown than the library holds.

B1: glmS ribozyme (parent)
chain: AUAAAAGCGCCAGAACUACAGAAAUGUAGUUGACGAGGAGGAGGUUUAUCGAAUUUUCGGCGGAUGCCUCCAAA

How the values were obtained:
Details in all cases: with glucosamine-6-phosphate
glucosamine-6-phosphate [1] = variants of: B1; experiment: self-cleavage kobs at 160 uM GlcN6P; higher = faster cleavage; RNA array
Procedure, shortened: (§1)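 In situ transcription by E. coli RNA polymerase produced barcoded ribozyme variants on sequenced MiSeq chips, and a hybridised Cy3 probe tracked them at 37 °C. Glucosamine-6-phosphate was flowed in at 40 μM to 10 mM in HEPES/KCl/Mg(OAc)2 buffer. kcat and KM were taken from weighted Michaelis–Menten fits of kobs values from exponential decay fits.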

glucosamine-6-phosphate [2] = variants of: B1; experiment: self-cleavage kobs at 640 uM GlcN6P; higher = faster cleavage; RNA array
Procedure, shortened: as §1

glucosamine-6-phosphate [3] = variants of: B1; experiment: self-cleavage kobs at 10000 uM GlcN6P; higher = faster cleavage; RNA array
Procedure, shortened: as §1

glucosamine-6-phosphate [4] = variants of: B1; experiment: self-cleavage kobs at 2500 uM GlcN6P; higher = faster cleavage; RNA array
Procedure, shortened: as §1

Row | Variant | self-cleavage kobs at 160 uM GlcN6P (glucosamine-6-phosphate [1]) [s⁻¹] | self-cleavage kobs at 640 uM GlcN6P (glucosamine-6-phosphate [2]) [s⁻¹] | self-cleavage kobs at 10000 uM GlcN6P (glucosamine-6-phosphate [3]) [s⁻¹] | self-cleavage kobs at 2500 uM GlcN6P (glucosamine-6-phosphate [4]) [s⁻¹]
1 | AUAAAAGCUCCAGAACUACAGAAAUGUAGUUGAUGAGGAGGAGGUUUAUCGAAAUUUCGGCGGAUGCCUCCAAA | < 1e-05 | – | – | –
2 | AUAAAAGCGCCAAAACUACAGAAAUGUAGUUGACGAGGAGGGUGUUUAUCGAAUUUUCGGCGGAUGCCUACAAA | < 1e-05 | < 1e-05 | < 1e-05 | –
3 | AUAAAACCGCCAGAACUACAGAAAUGUAGUUGACGAUGAGGAGGUUUAUCGAAUUUUCGGCGGAUGCCUCCAAA | < 1e-05 | < 1e-05 | – | < 1e-05
4 | AUAAAAGGGCCAGAAUUACAGAAAUGUAGUUGAUGAGGAGGAGGUUUAUCGAAUUUUCGGCGGAGGCCUCCAAA | < 1e-05 | – | – | –
5 | AUAAAAGCGCCAGAAAUACAGAAAUGUAGUUGACAAGGAGGAAGUUUAUCGAAUUUUCGGCGGAUGCCUCCAAA | < 1e-05 | < 1e-05 | – | < 1e-05
6 | AUAAAAGUGCCAGAACUACAGAAAUGUAGUUUACGAGGAGGAGGUUUAUCGAAUUUUCGGCUGAUGCCUCUAAA | < 1e-05 | – | – | < 1e-05
7 | AUAAAAGCGCGAGAACUACAGAAAUGUAGUUGACGAGGAGGAGGUGUAUCGAAUUUUCGGAGGAUACCUCCAAA | < 1e-05 | < 1e-05 | – | < 1e-05
8 | AUAAACGCGCCGGAACUACAGAAAUGUAGUUGACGAGGAGGAGGUUUAUCGAAUUUUCGGCGGAUGCGUGCAAA | < 1e-05 | < 1e-05 | – | < 1e-05
9 | AUAAAAGCGCCAGAACUACAGAAAUGUAGUUGACCAGGAGGAGGUUUAUCGAAUUUUCGGCGGAUGCCUCAAAA | < 1e-05 | < 1e-05 | – | < 1e-05
10 | AUAAAAGCGCCAGAACUACAGAAAUGUAGAUCACGAGGAGGAGGUUUAUCGAAUUUUCGGCAGAUGCCUCCAAA | < 1e-05 | – | – | < 1e-05
11 | AUAAAAGCGCCAGAACUACAGAAAUGUAGUUGACGAGGAGAAGGUUUAUCGAAUUUUCGACGUAUGCCUCCAAA | < 1e-05 | < 1e-05 | < 1e-05 | < 1e-05
12 | AUAAAAGCGCCAGAACUACAGAAAUGUAGUUGACGAGGAGGAGGUUUAUCGAGUUUUAGGCGGAUGCGUCCAAA | 0.000121 ± 4.6e-05 | – | – | 0.000107 ± 2.5e-05
13 | AUAAAAGCGCCAGCACUACAGAAAUGUAGUUGACGAGGUGGAGGUUUAUCGAAUUAUCGGCGUAUGCCUCCAAA | < 1e-05 | – | – | –
14 | AUAAAAGCGCCAUAACUACAGAAAUGUAGUUGACGAGGAGGUGGUUUAUCGAAUUUUCGGCGGAUGCCUCCAAA | < 1e-05 | < 1e-05 | – | < 1e-05
15 | AUAAAAGCGCCAGAACUACAGAAAUGUAGUUGACGAGGAGGAGGUUUAUCGAAUUUUCGUCGCAUGCCUGCAAA | < 1e-05 | < 1e-05 | – | –
16 | AUAAAAGCGCCAGAACUACAGAAAUGUAGUUGACGAGCAGGAGGUUUAUCGAAUUUUCCGCGGAUGGCUCCAAA | < 1e-05 | – | – | < 1e-05
